Measured values from publication PMC3796367.

Columns and labels:
[1] = target: Pks4 SAT(C117A)-KS-MAT tridomain; assay: cross-linking
[2] = target: Pks4 SAT(C117A)-KS-MAT tridomain; assay: ITC

Substance	stoichiometry N (ACP monomers per S0KM dimer) [1]	Kd [2] [µM]
Pks4 ACP loaded with a pantetheine crosslinker (crypto-ACP) (domain or fragment)	2	–
Pks4 apo-ACP (stand-alone ACP domain of Pks4) (domain or fragment)	–	15
PksA apo-ACP (stand-alone ACP domain of PksA) (domain or fragment)	–	30
